According to publication PMC2711036 (Molecular cell, 2009):

Legend:
[1] = target: T1, Srs2^CΔ276 (S. cerevisiae, UniProt P12954 1-898); experiment: SPR
T1 sequence (looked up): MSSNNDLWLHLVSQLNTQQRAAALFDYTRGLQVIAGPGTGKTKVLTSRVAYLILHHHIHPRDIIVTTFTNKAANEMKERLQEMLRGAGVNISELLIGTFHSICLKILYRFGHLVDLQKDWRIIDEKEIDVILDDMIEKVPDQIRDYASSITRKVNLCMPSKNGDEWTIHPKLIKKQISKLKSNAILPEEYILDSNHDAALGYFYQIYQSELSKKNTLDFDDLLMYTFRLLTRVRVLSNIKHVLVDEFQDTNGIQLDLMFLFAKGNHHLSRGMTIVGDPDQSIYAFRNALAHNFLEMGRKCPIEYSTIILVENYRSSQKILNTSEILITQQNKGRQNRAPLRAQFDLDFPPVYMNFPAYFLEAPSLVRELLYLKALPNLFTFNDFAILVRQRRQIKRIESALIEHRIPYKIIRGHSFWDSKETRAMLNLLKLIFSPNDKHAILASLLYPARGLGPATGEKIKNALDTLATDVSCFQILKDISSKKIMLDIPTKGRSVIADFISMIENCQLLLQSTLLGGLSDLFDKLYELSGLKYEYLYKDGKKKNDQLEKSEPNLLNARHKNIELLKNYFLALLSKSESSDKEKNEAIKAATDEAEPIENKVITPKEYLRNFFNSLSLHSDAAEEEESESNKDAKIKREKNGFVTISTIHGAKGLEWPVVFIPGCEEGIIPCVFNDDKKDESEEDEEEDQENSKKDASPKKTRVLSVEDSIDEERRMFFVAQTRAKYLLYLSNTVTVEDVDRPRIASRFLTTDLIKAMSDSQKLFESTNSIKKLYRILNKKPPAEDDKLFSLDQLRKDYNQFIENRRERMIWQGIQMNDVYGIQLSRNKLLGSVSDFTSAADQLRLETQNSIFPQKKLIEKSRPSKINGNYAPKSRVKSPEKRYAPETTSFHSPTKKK

[2] = target: Rad51-E221D (Saccharomyces cerevisiae, UniProt P25454 1-400, E221D); experiment: stopped-flow Cy3 fluorescence
[3] = target: Rad51 (yRad51 wild type) (Saccharomyces cerevisiae, UniProt P25454 1-400); experiment: stopped-flow Cy3 fluorescence

B1: Rad51 (natural protein, S. cerevisiae (yeast Rad51, yRad51), UniProt P25454 1-400, looked up)
chain: MSQVQEQHISESQLQYGNGSLMSTVPADLSQSVVDGNGNGSSEDIEATNGSGDGGGLQEQAEAQGEMEDEAYDEAALGSFVPIEKLQVNGITMADVKKLRESGLHTAEAVAYAPRKDLLEIKGISEAKADKLLNEAARLVPMGFVTAADFHMRRSELICLTTGSKNLDTLLGGGVETGSITELFGEFRTGKSQLCHTLAVTCQIPLDIGGGEGKCLYIDTEGTFRPVRLVSIAQRFGLDPDDALNNVAYARAYNADHQLRLLDAAAQMMSESRFSLIVVDSVMALYRTDFSGRGELSARQMHLAKFMRALQRLADQFGVAVVVTNQVVAQVDGGMAFNPDPKKPIGGNIMAHSSTTRLGFKKGKGCQRLCKVVDSPCLPEAECVFAIYEDGVGDPREEDE
[1]
  Kd: 15.2 ± 5 µM

B2: 5'-Cy3-dT79 (ssDNA)
DNA: TTTTTTTTTTTTTTTTTTTTTTTTTTTTTTTTTTTTTTTTTTTTTTTTTTTTTTTTTTTTTTTTTTTTTTTTTTTTTTT
[2]
  apparent K (half saturation): 2.17 ± 0.6 nM as printed
[3]
  apparent K (half saturation): 1.55 ± 0.3 nM as printed
